Assay results reported in PMC6356446.

Molecular target: c-Met (human (endogenous in HCC413)), P08581
Assay: flow cytometry on cells; HCC413 cells treated with EGF-FITC or HGF-FITC alone or with unlabeled LZ-8 for 15 min; fixed; relative mean fluorescence intensity
Conditions: remark: other sources report otherwise

c-Met (human (endogenous in HCC413)), P08581, sequence (P08581 25-1390): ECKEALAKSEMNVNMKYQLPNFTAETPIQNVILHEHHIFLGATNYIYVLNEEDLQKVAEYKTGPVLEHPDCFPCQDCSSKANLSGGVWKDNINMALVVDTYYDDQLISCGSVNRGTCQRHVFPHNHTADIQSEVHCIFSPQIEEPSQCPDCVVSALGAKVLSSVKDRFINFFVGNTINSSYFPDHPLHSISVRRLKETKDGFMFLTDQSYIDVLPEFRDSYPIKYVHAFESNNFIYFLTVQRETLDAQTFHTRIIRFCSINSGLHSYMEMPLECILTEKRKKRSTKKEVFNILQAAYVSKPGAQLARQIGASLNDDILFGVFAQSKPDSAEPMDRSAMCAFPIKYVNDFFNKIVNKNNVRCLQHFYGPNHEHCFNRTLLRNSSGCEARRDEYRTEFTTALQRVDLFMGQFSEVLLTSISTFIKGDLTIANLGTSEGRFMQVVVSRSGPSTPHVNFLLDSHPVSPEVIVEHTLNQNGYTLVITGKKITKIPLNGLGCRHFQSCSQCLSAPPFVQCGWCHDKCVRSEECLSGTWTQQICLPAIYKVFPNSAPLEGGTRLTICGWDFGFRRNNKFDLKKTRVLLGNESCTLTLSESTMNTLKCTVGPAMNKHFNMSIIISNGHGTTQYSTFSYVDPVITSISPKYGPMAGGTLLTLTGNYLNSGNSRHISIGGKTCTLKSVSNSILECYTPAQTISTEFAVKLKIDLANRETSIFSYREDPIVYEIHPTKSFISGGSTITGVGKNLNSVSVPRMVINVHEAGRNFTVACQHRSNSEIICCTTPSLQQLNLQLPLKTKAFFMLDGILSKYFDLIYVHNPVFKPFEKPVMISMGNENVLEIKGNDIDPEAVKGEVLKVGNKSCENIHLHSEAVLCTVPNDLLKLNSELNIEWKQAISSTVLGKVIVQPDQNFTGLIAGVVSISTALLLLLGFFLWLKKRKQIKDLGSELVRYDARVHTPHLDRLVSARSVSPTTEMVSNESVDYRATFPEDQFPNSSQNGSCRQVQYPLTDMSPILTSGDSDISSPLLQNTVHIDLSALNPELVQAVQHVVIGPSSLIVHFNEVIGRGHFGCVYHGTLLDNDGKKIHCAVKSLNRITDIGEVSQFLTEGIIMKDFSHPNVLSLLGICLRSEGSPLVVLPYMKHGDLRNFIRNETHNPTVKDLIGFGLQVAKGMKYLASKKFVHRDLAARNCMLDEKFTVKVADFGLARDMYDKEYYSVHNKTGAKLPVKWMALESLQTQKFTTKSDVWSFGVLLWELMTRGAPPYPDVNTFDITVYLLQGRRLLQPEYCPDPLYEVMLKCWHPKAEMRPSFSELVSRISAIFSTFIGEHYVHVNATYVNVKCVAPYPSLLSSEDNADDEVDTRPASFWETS

B1: Ling-Zhi-8, P14945 1-111 (natural protein)
chain: MSDTALIFRLAWDVKKLSFDYTPNWGRGNPNNFIDTVTFPKVLTDKAYTYRVAVSGRNLGVKPSYAVESDGSQKVNFLEYNSGYGIADTNTIQVFVVDPDTNNDFIIAQWN
modifications: here or on the partner: N-glycans (sites not given)
- percent suppression of HGF-FITC binding on the cell surface: 30%
